Data set [1] concerns CT26 murine primary colon carcinoma. Put plainly: CT26 syngeneic tumor model. The settings on record: mouse. Also noted: species or system BALB/c mice. The procedure:
Exemplary of an animal tumor model that can be used to assess the effect of cancer treatment using ADA2 provided herein is the CT26 syngeneic tumor model. This model is created by subcutaneous injection of CT26 murine primary colon carcinoma (ATCC CRL-2638) cells into syngeneic BALB/c mice. The mice are staged until the tumor is established, then the agent used for treatment, such as any ADA2 provided herein or combination therapy including ADA2 treatment, are administered. Another example of an animal tumor model of pancreatic cancer involves the generation of tumors in animals using BxPC-3 pancreatic adenocarcinoma cells (see e.g. Von Hoff et al. (2011) J. Clin. Oncol., 29:4548-54). […]
In other examples, tumor volume can be measured using an average of measurements of tumor diameter (D) obtained by caliper or ultrasound assessments. For example, tumor volume can be determined using VisualSonics Vevo 770 high-resolution ultrasound or other similar ultrasound. The volume can be determined from the formula V=D^3×π/6 (for diameter measured using calipers) or V=D^2×d×π/6 (for diameter measured using ultrasound where d is the depth or thickness). For example, caliper measurements can be made of the tumor length (l) and width (w) and tumor volume calculated as length×width^2×0.52. […] Tumor volumes can be determined by using available software (e.g., Amira 3.1 software; Mercury Computer Systems). […]

A short description of data set [2]: Stability of ADA activity in plasma. The class given is in vitro ADME, mouse. Particulars: long incubation (e.g., 24 hours) in plasma. The procedure: For therapeutic uses, such as for treatment of tumors or cancers, it is desirable to administer to the subject a dosage of ADA2 that will maintain plasma adenosine deaminase (ADA) activity for a sufficient time for therapeutic effect. […] The plasma stability of any ADA2 described herein, such as a wildtype, variant or conjugate, can be determined by measuring the changes in enzymatic activity and/or other physical properties, before and after incubation in plasma, e.g., ex vivo mammalian plasma.
Stability can be assessed in vitro or in vivo. For example, stability can be tested after exposure to plasma for a desired length of time, which can be empirically determined or selected by a skilled artisan depending on the desired length of time. For example, the incubation time can be at least 1 hour, such as at least 2, 3, 4, 5, 10, 15, 20, 24, 30, 36, 48, 60, 72 hours or more. The protein can be directly administered systemically, such as intravenously, and activity can be assessed. In other examples, the protein can be subject to appropriate incubation conditions in vitro. In one example, the stability of ADA activity of any ADA2 provided herein can be measured after incubation at 37° C., in 25% ex vivo plasma or serum, such as human or non-human plasma or serum, for example, mouse plasma. […]

A short description of data set [3]: Distribution in normal organs of naive mice vs. CT26 tumors (IVIS). In kind it is in vivo, Balb/c mice. Particulars: 24 hr; for (Fluorescent intensity/Tissue Weight) - Baseline: 0.5 mg/kg IV. The procedure:
To assess the distribution and elimination of administered PEG-ADA2-K374D in the tumor microenvironment or in normal organs, immunofluorescence was used to assess the presence of PEG-ADA2-K374D administered to mice. PEG-ADA2-K374D was labeled at room temperature for 60 minutes with DyLight755 Sulfydryl-Reactive Dye (DL755), a near-IR fluor, using the DyLight 755 Antibody Labeling Kit (Thermo Scientific, Rockford, Ill.). Alexa Fluor 750 (AF 750) labeled bovine serum albumin (BSA, 1 mg/mL) was purchased from (Life Technology, Carlsbad, Calif.).
To compare the distribution in naïve mice, CT26-tumor bearing mice were generated as described above, and were intravenously administered PEG-ADA2-K374D^DL755 at 0.5 mg/kg (n=3). Separately, naïve Balb/c mice also were intravenously administered PEG-ADA2-K374D^DL755 at 0.5 mg/kg (n=4). The mice were sacrificed and transcardically perfused with heparin normal saline 24 hours post PEG-ADA2-K374D^DL755 injection. Tumors from tumor-bearing mice and organs from naïve mice were collected and imaged with IVIS image system, and DL755 signal intensity was measured with LivingImage software as described above. Signal intensity was normalized by tissue organ weight.

B1: ADA2: wild-type human adenosine deaminase 2, mature form SEQ ID NO:5, homodimer (protein, listed as Homo sapiens)
chain: IDETRAHLLLKEKMMRLGGRLVLNTKEELANERLMTLKIAEMKEAMRTLIFPPSMHFFQAKHLIERSQVFNILRMMPKGAALHLHDIGIVTMDWLVRNVTYRPHCHICFTPRGIMQFRFAHPTPRPSEKCSKWILLEDYRKRVQNVTEFDDSLLRNFTLVTQHPEVIYTNQNVVWSKFETIFFTISGLIHYAPVFRDYVFRSMQEFYEDNVLYMEIRARLLPVYELSGEHHDEEWSVKTYQEVAQKFVETHPEFIGIKIIYSDHRSKDVAVIAESIRMAMGLRIKFPTVVAGFDLVGHEDTGHSLHDYKEALMIPAKDGVKLPYFFHAGETDWQGTSIDRNILDALMLNTTRIGHGFALSKHPAVRTYSWKKDIPIEVCPISNQVLKLVSDLRNHPVATLMATGHPMVISSDDPAMFGAKGLSYDFYEVFMGIGGMKADLRTLKQLAMNSIKYSTLLESEKNTFMEIWKKRWDKFIADVATK
modifications: ADA2 mature protein
With B1, the “tumor growth in vivo” value in data set [1] is given as “reduce tumor growth”. Further, in data set [2], the stability in plasma entry is listed as “more stable than ADA1”.

B2: PEG-K374D: rHuADA2-K374D (SEQ ID NO:20) PEGylated on surface exposed lysines with linear PEG-20K (conjugate)
chain: IDETRAHLLLKEKMMRLGGRLVLNTKEELANERLMTLKIAEMKEAMRTLIFPPSMHFFQAKHLIERSQVFNILRMMPKGAALHLHDIGIVTMDWLVRNVTYRPHCHICFTPRGIMQFRFAHPTPRPSEKCSKWILLEDYRKRVQNVTEFDDSLLRNFTLVTQHPEVIYTNQNVVWSKFETIFFTISGLIHYAPVFRDYVFRSMQEFYEDNVLYMEIRARLLPVYELSGEHHDEEWSVKTYQEVAQKFVETHPEFIGIKIIYSDHRSKDVAVIAESIRMAMGLRIKFPTVVAGFDLVGHEDTGHSLHDYKEALMIPAKDGVKLPYFFHAGETDWQGTSIDRNILDALMLNTTRIGHGFALSKHPAVRTYSWDKDIPIEVCPISNQVLKLVSDLRNHPVATLMATGHPMVISSDDPAMFGAKGLSYDFYEVFMGIGGMKADLRTLKQLAMNSIKYSTLLESEKNTFMEIWKKRWDKFIADVATK
modifications: linear PEG-20K on surface lysines; human ADA2 K371D, mature numbering
For B2, the “(Fluorescent intensity/Tissue Weight) - Baseline” value is 1.82E+06 in data set [3] (Bone, naive mice); 2.11E+05 in data set [3] (Brain, naive mice); 9.13E+05 in data set [3] (Colon, naive mice); 5.55E+05 in data set [3] (Heart, naive mice); 8.61E+05 in data set [3] (Kidney, naive mice); 4.02E+06 in data set [3] (Liver, naive mice). For the same molecule, the “(Fluorescent intensity/Tissue Weight) - Baseline” value was determined as 1.22E+06 in data set [3] (Lung, naive mice); 2.98E+06 in data set [3] (Spleen, naive mice); 6.22E+06 in data set [3] (Tumor, CT26 tumor-bearing mice). For the same molecule, the “Signal Intensity (Tumor vs Organ)” value is listed as 3.4 in data set [3] (ratio tumor/Bone); 29.5 in data set [3] (ratio tumor/Brain); 6.8 in data set [3] (ratio tumor/Colon); 11.2 in data set [3] (ratio tumor/Heart); 7.2 in data set [3] (ratio tumor/Kidney); 1.5 in data set [3] (ratio tumor/Liver). The “Signal Intensity (Tumor vs Organ)” value came out at 5.1 in data set [3] (ratio tumor/Lung) and 2.1 in data set [3] (ratio tumor/Spleen).

These data come from patent publication US9969998B2, “Compositions of adenosine deaminase-2 (ADA2), variants thereof and methods of using same” (Halozyme, Inc., priority 2014, dated 2018).
